Patent US20260104381, “ELECTRODEPOSITED METAL MODIFIED LASER SCRIBED GRAPHENE ELECTRODE AND METHOD” (KING ABDULLAH UNIVERSITY OF SCIENCE AND TECHNOLOGY, published 2026)

Molecular target: HER2 (human epidermal growth factor receptor 2) (Homo sapiens, UniProt P04626 P04626:23-652)
Assay: electrochemical SWV aptasensor; 0.1-200 ng/mL HER2 in 10 mM PBS pH 7.4, 1 h; MCH/BSA blocked; LOD 0.008 ng/mL; also detected in spiked undiluted human serum; protein source not stated
Details: label: immobilized via thiol on gold nanostructured laser-scribed graphene electrode
Method: The concentrated Mercaptohexanol (MCH) solution was first prepared in ultrapure water and then further diluted in 10 mM PBS (pH 7.4). 4 μM of DNA aptamer 410 was mixed with 20 μM of MCH 412 prepared with 10 mM PBS (pH 7.4) to obtain a homogenized solution. As the next step, 6 μL from this mixture was placed in step 402 onto the LSG-AuNS modified working electrode 104 and incubated for 16 h, as shown in FIG. 4B. The MCH 412 covers a first part of the surface of the nanostructure 110 while the aptamer 410 covers a second part of the surface of the nanostructure 110. However, a third part of the surface of the nanostructure 110 is not covered by either of the MCH or the aptamer. The LSG-AuNS electrode surface was cleaned with 10 mM PBS (pH 7.4) to remove the excess of aptamer molecules 410 and MCH 412. The aptasensor was incubated in step 405 in 0.1 mg/mL of BSA solution 414 in 10 mM PBS (pH 7.4) for 45 min to cover a third part of the surface of the nanostructure 110, to reduce non-specific adsorption, as illustrated in FIG. 4C. In one application, the sum of the surfaces of the first to third parts covers the entire surface of the nanostructure 110. However, in another application, the sum of the first to third parts cover less than the entire surface of the nanostructure 110. Finally, the aptamer modified electrode 104 was washed with 10 mM PBS (pH 7.4) for at least five times. […]

B1: thiol-modified anti-Her-2 DNA aptamer (APT) (ssDNA)
DNA: AACCGCCCAAATCCCTAAGAGTCTGCACTTGTCATTTTGTATATGTATTTGGTTTTTGGCTCTCACAGACACACTACACACGCACA
modifications: 5'-ThiC6 (thiol C6 linker)
B1: binds.
